Source: US20240376214A1, “ANTI-C-MET ANTIBODIES AND ANTIBODY-DRUG CONJUGATES” (BYONDIS B.V., priority 2021, published 2024)

Tests used:
c-Met = molecular target: T1, c-Met (Homo sapiens, UniProt P08581, DEL964-1010); experiment: Functionality of chimeric antibodies, stimulation of proliferation experiment in NCI-H596 cells; type: cell-based
T1 construct: endogenous in cells; host or cells: NCI-H596
Excerpt: From this perspective, although all three wt/41C chimeric mAbs were humanized and studied in further experiments, wt/41C-chi-mAb3 is the most preferred chimeric anti-c-Met antibody to further develop into an ADC for treatment of a cancer indication.

[1] = molecular target: T2, human c-Met (HGFR), full length, on the cell surface (human, UniProt P08581 25-1390); experiment: cell binding on c-Met positive MKN45 cells, fluorescence readout RFU (R-PE), mean ± S.E.M. of two experiments in duplicate
T2 construct: Endogenous c-Met on human tumor cell lines MKN45, NCI-H596, PC-3 and HepG2; also called hepatocyte growth factor receptor; mesenchymal-epithelial transition factor

[2] = molecular target: T2, human c-Met (HGFR), full length, on the …; experiment: cell-based or functional assay
[3] = tested on: c-Met-positive tumor cell lines MKN45, NCI-H441 and PC-3; experiment: Internalization by flow cytometry (AF488 quenching); type: cell-based, human
Method: Internalization of mAb3b was studied in human c-Met-positive tumor cell lines MKN45, NCI-H441 and PC-3. Cells (100,000 cells/well of a 96-well round bottomed microtiter plate) were incubated for 30 minutes at 4° C. with 50 μL 10 μg/mL mAb3b or appropriate non-binding control antibody. After a wash step with ice-cold complete growth medium (CGM) consisting of RPMI (Lonza) supplemented with 10% heat inactivated (HI) fetal bovine serum (FBS) (Gibco) and 80 U/mL penicillin/streptomycin (Lonza), the cells were incubated for 30 minutes at 4° C. with 50 μL Alexa Fluor 488 (AF488)-labeled Fab Fragment goat anti-human IgG (1:600 dilution) (Jackson Immunoresearch). After a wash step with ice-cold CGM, cells were resuspended in 150 μL pre-warmed CGM and transferred to polypropylene tubes, one for each time point (0 h, 0.5 h, 1 h, 3 h, 24 h) and placed into a 37° C. water bath to initiate internalization. […] Identical unquenched tubes were determined for the total fluorescence at each time point. Fluorescence intensities were determined by flow cytometry (BD FACSVerse, Franklin Lakes, NJ) and indicated as the Median Fluorescence Intensity (MFI). Internalization was quantified by calculating the percentage of internalization with the formula described. […]

B1: 41C-chi-mAb1: HC-41C chimeric anti-c-Met IgG1 antibody, VH SEQ ID NO:7, VL SEQ ID NO:2 (antibody, V domains shown)
VH: EVQLQQSGPELLKPGASVKMSCKASGYIFTDYFMNWVKQSCGKSLEWIGRVNPKNGDITYNQKFRGKATLTVDKSLTTAYMQLNSLTSEDSAVYFCAYDGYYDGMDFWGQGTSVTVSS
VL: ENVLTQSPAIMSASPGEKVTMTCRANSSVSSNFLHWYQQKSGASPKLWISSTSNLAFGVPPRFSGSGSGTSYSLTISSVEAEDAATYYCHQYSGHPFTFGSGTKLEIK
modifications: IgG1 constant regions; HCVR - VH H41C; LCVR
- Functionality (c-Met): Partial agonist

B2: wt-chi-mAb2: wild-type chimeric anti-c-Met IgG1 antibody, VH SEQ ID NO:3, VL SEQ ID NO:4 (antibody, V domains shown)
VH: QVQLQQSGAELVRPGASVKLSCKASGYVFPDYEMHWVKQTPVHGLEWIGAFDPETGDTTYNQNFKGKATLTADKASSTAYMDLRSLTSGDSAVYYCARDYKYLYYYAMDNWGQGTSVTVSS
VL: QIVLTQSPAIMSASLGERVTMTCTASSSITSSYLHWYQQKPGSSPKLWIYSTTNLASGVPGRFSGSGSGTSFSLTISSMEAEDAATYYCHQYRRSPLTFGAGTKLELK
modifications: human IgG1 constant regions; HCVR; LCVR
- Functionality (c-Met): Partial agonist

B3: ADC3b (antibody, human IgG1, kappa, V domains shown)
VH: QVQLVQSGAEVKKPGASVKVSCKASGYTFTDYYLNWVRQACGQGLEWMGLIFPGNDKTEYSEKFKGRVTLTTDTSISTAYMELSSLTSDDTALYYCSGGDYGGFVYWGQGTLVTVSS
VL: DIQMTQSPSSLSASVGDRVTISCGASENIYGALNWYQQQPGKAPKVLIFGATNLADGVPSRFSGSGSGTDFTLTISSLQPEDFATYYCQNVLSSPLTFGQGTKLEIKR
modifications: vc-seco-DUBA linker-drug on the engineered cysteine at HC position 41 (Kabat); DAR 1.9
notes: Antibody-drug conjugate of mAb3b; also called mAb3b-vc-seco-DUBA
- EC50 (read off the curve) [1]: ~0.04 µg/mL
- Efficacy (%), in vitro cytotoxicity, MKN-45, -HGF [2]: 84%
- Efficacy (%), in vitro cytotoxicity, NCI-H596, +HGF [2]: 44%
- Efficacy (%), in vitro cytotoxicity, NCI-H596, -HGF [2]: 10%
- Efficacy (%), in vitro cytotoxicity, PC-3, +HGF [2]: 75%
- Efficacy (%), in vitro cytotoxicity, PC-3, -HGF [2]: 75%
- IC50 1, in vitro cytotoxicity, PC-3, -HGF [2]: 0.05 nM
- IC50, in vitro cytotoxicity, MKN-45, -HGF [2]: 0.38 nM
- IC50, in vitro cytotoxicity, NCI-H596, +HGF [2]: 1.47 nM
- IC50, in vitro cytotoxicity, NCI-H596, -HGF [2]: > 10 nM
- IC50, in vitro cytotoxicity, PC-3, +HGF [2]: ~1.01 nM

B4: mAb3b: HC-41C humanized anti-c-Met antibody, VH SEQ ID NO:16, VL SEQ ID NO:20 (antibody, V domains shown)
VH: QVQLVQSGAEVKKPGASVKVSCKASGYTFTDYYLNWVRQACGQGLEWMGLIFPGNDKTEYSEKFKGRVTLTTDTSISTAYMELSSLTSDDTALYYCSGGDYGGFVYWGQGTLVTVSS
VL: DIQMTQSPSSLSASVGDRVTISCGASENIYGALNWYQQQPGKAPKVLIFGATNLADGVPSRFSGSGSGTDFTLTISSLQPEDFATYYCQNVLSSPLTFGQGTKLEIK
modifications: humanized HCVR; humanized LCVR
- Internalization ([3]; 10 μg/mL, each of MKN45, NCI-H441, PC-3): Efficient internalization
- time of maximum internalization ([3]; each of the cell lines): 24 h
